The values below come from patent publication US12679878B2, “CRF2 receptor agonists and their use in therapy” (SANOFI, priority 2020, dated 2026).

What all share (assay): cell-based or functional assay
The target of assay [1] is T1, CRF1R receptor (anti-target) (UniProt P34998 24-415, limits assumed).
T1 sequence (looked up): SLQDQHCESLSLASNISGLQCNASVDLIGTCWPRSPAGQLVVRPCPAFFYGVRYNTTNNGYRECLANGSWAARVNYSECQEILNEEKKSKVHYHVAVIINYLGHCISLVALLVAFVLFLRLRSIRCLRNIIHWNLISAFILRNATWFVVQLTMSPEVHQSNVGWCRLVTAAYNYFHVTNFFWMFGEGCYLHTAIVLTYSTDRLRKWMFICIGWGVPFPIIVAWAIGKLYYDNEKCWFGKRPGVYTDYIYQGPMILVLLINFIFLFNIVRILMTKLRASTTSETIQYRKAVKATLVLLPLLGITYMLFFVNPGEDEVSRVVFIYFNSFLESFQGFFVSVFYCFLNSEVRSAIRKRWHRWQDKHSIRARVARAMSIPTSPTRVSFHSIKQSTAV

Assay [2] deals with human corticotropin-releasing factor 2α (CRF2α receptor) (human), Q13324.
Assay [3] addresses human corticotropin-releasing factor 2α receptor (CRF2α receptor) (human), Q13324.

Starred links: 1 amine or outer side, 2 acyl side, 3 side chain; linkers in the order of their positions; H or OH if unused. Non-standard residues stand in square brackets, D forms with d. Groups on a side chain read outwards from the residue. No end group written: not given here. *: point of attachment. γGlu = O=C(O)[C@H](CCC(=O)[*:2])N[*:1]; Palmitoyl = CCCCCCCCCCCCCCCC(=O)*; Aib = CC(C)(N)C(=O)O

B1: peptide of SEQ ID NO: 219 (peptide)
peptide: IVLSLD[dV]PIKLK([γGlu-Palmitoyl])QILLKQARQK[Aib]QRAQAEKNKRILERV-NH2
modifications: N-terminus assumed
SMILES: CCCCCCCCCCCCCCCC(=O)N[C@@H](CCC(=O)NCCCC[C@H](NC(=O)[C@H](CC(C)C)NC(=O)[C@H](CCCCN)NC(=O)[C@@H](NC(=O)[C@@H]1CCCN1C(=O)[C@H](NC(=O)[C@H](CC(=O)O)NC(=O)[C@H](CC(C)C)NC(=O)[C@H](CO)NC(=O)[C@H](CC(C)C)NC(=O)[C@@H](NC(=O)[C@@H](N)[C@@H](C)CC)C(C)C)C(C)C)[C@@H](C)CC)C(=O)N[C@@H](CCC(N)=O)C(=O)N[C@H](C(=O)N[C@@H](CC(C)C)C(=O)N[C@@H](CC(C)C)C(=O)N[C@@H](CCCCN)C(=O)N[C@@H](CCC(N)=O)C(=O)N[C@@H](C)C(=O)N[C@@H](CCCNC(=N)N)C(=O)N[C@@H](CCC(N)=O)C(=O)N[C@@H](CCCCN)C(=O)NC(C)(C)C(=O)N[C@@H](CCC(N)=O)C(=O)N[C@@H](CCCNC(=N)N)C(=O)N[C@@H](C)C(=O)N[C@@H](CCC(N)=O)C(=O)N[C@@H](C)C(=O)N[C@@H](CCC(=O)O)C(=O)N[C@@H](CCCCN)C(=O)N[C@@H](CC(N)=O)C(=O)N[C@@H](CCCCN)C(=O)N[C@@H](CCCNC(=N)N)C(=O)N[C@H](C(=O)N[C@@H](CC(C)C)C(=O)N[C@@H](CCC(=O)O)C(=O)N[C@@H](CCCNC(=N)N)C(=O)N[C@H](C(N)=O)C(C)C)[C@@H](C)CC)[C@@H](C)CC)C(=O)O
Turning to B1, in assay [1], the “CRF1/CRF2 ratio (of EC50)” value is 2 and the “CRF1 EC50 (cAMP, HTRF)” value was 13.5 nM. Further, the EC50 [nM], 0% HSA (cAMP, HTRF) in assay [2] came out at 5.98 nM. The same molecule showed a CRF2 EC50 (cAMP, HTRF) in assay [3] of 5.98 nM.

B2: peptide of SEQ ID NO: 218 (peptide)
peptide: IVLSLD[dV]PIGLK([γGlu-Palmitoyl])QILLKQERQKK[Aib]REQAEKNKRILERV-NH2
modifications: N-terminus assumed
SMILES: CCCCCCCCCCCCCCCC(=O)N[C@@H](CCC(=O)NCCCC[C@H](NC(=O)[C@H](CC(C)C)NC(=O)CNC(=O)[C@@H](NC(=O)[C@@H]1CCCN1C(=O)[C@H](NC(=O)[C@H](CC(=O)O)NC(=O)[C@H](CC(C)C)NC(=O)[C@H](CO)NC(=O)[C@H](CC(C)C)NC(=O)[C@@H](NC(=O)[C@@H](N)[C@@H](C)CC)C(C)C)C(C)C)[C@@H](C)CC)C(=O)N[C@@H](CCC(N)=O)C(=O)N[C@H](C(=O)N[C@@H](CC(C)C)C(=O)N[C@@H](CC(C)C)C(=O)N[C@@H](CCCCN)C(=O)N[C@@H](CCC(N)=O)C(=O)N[C@@H](CCC(=O)O)C(=O)N[C@@H](CCCNC(=N)N)C(=O)N[C@@H](CCC(N)=O)C(=O)N[C@@H](CCCCN)C(=O)N[C@@H](CCCCN)C(=O)NC(C)(C)C(=O)N[C@@H](CCCNC(=N)N)C(=O)N[C@@H](CCC(=O)O)C(=O)N[C@@H](CCC(N)=O)C(=O)N[C@@H](C)C(=O)N[C@@H](CCC(=O)O)C(=O)N[C@@H](CCCCN)C(=O)N[C@@H](CC(N)=O)C(=O)N[C@@H](CCCCN)C(=O)N[C@@H](CCCNC(=N)N)C(=O)N[C@H](C(=O)N[C@@H](CC(C)C)C(=O)N[C@@H](CCC(=O)O)C(=O)N[C@@H](CCCNC(=N)N)C(=O)N[C@H](C(N)=O)C(C)C)[C@@H](C)CC)[C@@H](C)CC)C(=O)O
For the molecule B2, in assay [1], the “CRF1/CRF2 ratio (of EC50)” value came to 4 and the “CRF1 EC50 (cAMP, HTRF)” value amounted to 6.97 nM. Moreover, in assay [2], the EC50 [nM], 0% HSA (cAMP, HTRF) is 1.58 nM. The same molecule gave a CRF2 EC50 (cAMP, HTRF) in assay [3] of 1.58 nM.

B3: peptide of SEQ ID NO: 212 (peptide)
peptide: IVLSLD[dV]PIKLK([γGlu-Palmitoyl])QILLKQERQKKQREQAEKNKQILEQV-NH2
modifications: N-terminus assumed
SMILES: CCCCCCCCCCCCCCCC(=O)N[C@@H](CCC(=O)NCCCC[C@H](NC(=O)[C@H](CC(C)C)NC(=O)[C@H](CCCCN)NC(=O)[C@@H](NC(=O)[C@@H]1CCCN1C(=O)[C@H](NC(=O)[C@H](CC(=O)O)NC(=O)[C@H](CC(C)C)NC(=O)[C@H](CO)NC(=O)[C@H](CC(C)C)NC(=O)[C@@H](NC(=O)[C@@H](N)[C@@H](C)CC)C(C)C)C(C)C)[C@@H](C)CC)C(=O)N[C@@H](CCC(N)=O)C(=O)N[C@H](C(=O)N[C@@H](CC(C)C)C(=O)N[C@@H](CC(C)C)C(=O)N[C@@H](CCCCN)C(=O)N[C@@H](CCC(N)=O)C(=O)N[C@@H](CCC(=O)O)C(=O)N[C@@H](CCCNC(=N)N)C(=O)N[C@@H](CCC(N)=O)C(=O)N[C@@H](CCCCN)C(=O)N[C@@H](CCCCN)C(=O)N[C@@H](CCC(N)=O)C(=O)N[C@@H](CCCNC(=N)N)C(=O)N[C@@H](CCC(=O)O)C(=O)N[C@@H](CCC(N)=O)C(=O)N[C@@H](C)C(=O)N[C@@H](CCC(=O)O)C(=O)N[C@@H](CCCCN)C(=O)N[C@@H](CC(N)=O)C(=O)N[C@@H](CCCCN)C(=O)N[C@@H](CCC(N)=O)C(=O)N[C@H](C(=O)N[C@@H](CC(C)C)C(=O)N[C@@H](CCC(=O)O)C(=O)N[C@@H](CCC(N)=O)C(=O)N[C@H](C(N)=O)C(C)C)[C@@H](C)CC)[C@@H](C)CC)C(=O)O
Regarding B3, in assay [1], the “CRF1/CRF2 ratio (of EC50)” value was found to be 1 and the “CRF1 EC50 (cAMP, HTRF)” value came out at 0.9 nM. The EC50 [nM], 0% HSA (cAMP, HTRF) in assay [2] was determined as 1.23 nM. This molecule also yielded a CRF2 EC50 (cAMP, HTRF) in assay [3] of 1.23 nM.

B4: peptide of SEQ ID NO: 214 (peptide)
peptide: IVLSLD[dV]PIKLK([γGlu-Palmitoyl])QILLKQERQKKQRQQAEKNKQILAQV-NH2
modifications: N-terminus assumed
SMILES: CCCCCCCCCCCCCCCC(=O)N[C@@H](CCC(=O)NCCCC[C@H](NC(=O)[C@H](CC(C)C)NC(=O)[C@H](CCCCN)NC(=O)[C@@H](NC(=O)[C@@H]1CCCN1C(=O)[C@H](NC(=O)[C@H](CC(=O)O)NC(=O)[C@H](CC(C)C)NC(=O)[C@H](CO)NC(=O)[C@H](CC(C)C)NC(=O)[C@@H](NC(=O)[C@@H](N)[C@@H](C)CC)C(C)C)C(C)C)[C@@H](C)CC)C(=O)N[C@@H](CCC(N)=O)C(=O)N[C@H](C(=O)N[C@@H](CC(C)C)C(=O)N[C@@H](CC(C)C)C(=O)N[C@@H](CCCCN)C(=O)N[C@@H](CCC(N)=O)C(=O)N[C@@H](CCC(=O)O)C(=O)N[C@@H](CCCNC(=N)N)C(=O)N[C@@H](CCC(N)=O)C(=O)N[C@@H](CCCCN)C(=O)N[C@@H](CCCCN)C(=O)N[C@@H](CCC(N)=O)C(=O)N[C@@H](CCCNC(=N)N)C(=O)N[C@@H](CCC(N)=O)C(=O)N[C@@H](CCC(N)=O)C(=O)N[C@@H](C)C(=O)N[C@@H](CCC(=O)O)C(=O)N[C@@H](CCCCN)C(=O)N[C@@H](CC(N)=O)C(=O)N[C@@H](CCCCN)C(=O)N[C@@H](CCC(N)=O)C(=O)N[C@H](C(=O)N[C@@H](CC(C)C)C(=O)N[C@@H](C)C(=O)N[C@@H](CCC(N)=O)C(=O)N[C@H](C(N)=O)C(C)C)[C@@H](C)CC)[C@@H](C)CC)C(=O)O
Turning to B4, in assay [1], the “CRF1/CRF2 ratio (of EC50)” value came out at 1 and the “CRF1 EC50 (cAMP, HTRF)” value stood at 4.27 nM. The molecule further returned an EC50 [nM], 0% HSA (cAMP, HTRF) in assay [2] of 4.15 nM. Besides, the CRF2 EC50 (cAMP, HTRF) in assay [3] was found to be 4.15 nM.
